Reference: the supplement of paper PMC9732359
± gives the uncertainty stated by the source.

Assay: protein stability index of a GFP-peptide fusion (yeast GPS) (PSI 1-4); higher = more stable; sorted into four equal gates, so the index is relative within each strain
How it was run: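 Tiled 17-residue yeast protein peptides were fused downstream of GFP in a plasmid that also expresses Cherry, and the pooled library was carried in yeast. Mid-log cultures in leucine-free medium were sorted into four equal gates by GFP/Cherry fluorescence ratio, and plasmids from each gate were PCR-amplified and Illumina-sequenced, with reads assigned to strains by barcodes. The protein stability index for each peptide was each gate's read frequency times its gate number, summed.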

Sequence	protein stability index (doa10∆)	protein stability index (pdr5∆)	protein stability index (san1∆)	protein stability index (ubr1∆)
NIRSQLLSENRSEKSTT [SRP54]	3.04 ± 0.06	3 ± 0.1	3.01 ± 0.055	3.13 ± 0.038
NVSDEQLSNWQKIRNSE [ITC1]	3.15 ± 0.071	3.2 ± 0.095	2.94 ± 0.1	2.98 ± 0.087
TPGLTFNAIDLARHLPA [RPC82]	2.71 ± 0.069	2.73 ± 0.061	2.77 ± 0.056	3.21 ± 0.075
QREFKEIMEERNVEQKL [NNF1]	–	–	2.79 ± 0.24	–
NTLYTAIITDDLDTVLK [SRP72]	2.19 ± 0.039	2.5 ± 0.031	2.44 ± 0.041	2.6 ± 0.035
RVAASFSQEALQYVVER [FAS1]	1.06 ± 0.091	1.19 ± 0.11	–	1.14 ± 0.089
GTILSSAGDDGKVRLWK [YGL100W/SEH1]	3.27 ± 0.12	3.51 ± 0.1	3.49 ± 0.053	3.38 ± 0.059
INNPVNLTIHFGGEKGK [FAS1]	2.97 ± 0.068	2.8 ± 0.097	2.8 ± 0.07	3.25 ± 0.069
KKTKFLSPSGHKTFLVA [RPL32]	–	–	1.44 ± 0.27	–
FGTGKRLAKKVARRNAD [RPS24A]	3.46 ± 0.062	3.31 ± 0.055	3.1 ± 0.04	3.31 ± 0.039
KRFMNTSQNPQRDAEIS [BRR2]	3.04 ± 0.076	3.03 ± 0.085	3.12 ± 0.1	2.95 ± 0.059
PTPSVKTEPVGTGLQSY [RPC53]	3.4 ± 0.25	3.23 ± 0.13	3.16 ± 0.1	3.25 ± 0.11
QITKFPKYRDNLATWYH [SSN3]	2.77 ± 0.065	2.88 ± 0.077	2.7 ± 0.066	2.37 ± 0.041
QPLFSTVPEYLKTADNR [PGD1]	2.79 ± 0.088	2.6 ± 0.099	2.87 ± 0.075	2.96 ± 0.057
IVFVHSRKETSRTATWL [BRR2]	2.53 ± 0.11	2.67 ± 0.12	2.57 ± 0.21	2.89 ± 0.077
GRKHVAALRTVKSLVDN [RPL9A]	2.99 ± 0.12	3.17 ± 0.079	2.91 ± 0.092	2.96 ± 0.071
YVKAVSDKAQLNVVMKN [SMC4]	2.1 ± 0.074	2.07 ± 0.063	1.6 ± 0.11	2.19 ± 0.053
NLEIPAYEFDGDKVIVG [RIP1]	2.71 ± 0.07	2.61 ± 0.093	2.65 ± 0.064	2.72 ± 0.077
FTPKLIYDFITLFSSIE [ECM29]	2.06 ± 0.073	2.1 ± 0.056	2.17 ± 0.11	2.38 ± 0.053
AFTCFCIKKIMENNEPA [SRB8]	2.21 ± 0.062	2.64 ± 0.077	2.38 ± 0.09	2.15 ± 0.079
TQTGQNTGPSTGGLFGA [YGL172W/NUP49]	3.47 ± 0.11	3.34 ± 0.094	2.93 ± 0.14	3.52 ± 0.13
WYKVAKNVGNKSPEQCI [SWI3]	2.98 ± 0.097	3.27 ± 0.07	3.07 ± 0.093	3.08 ± 0.05
IALLTLKESVEGEFNGD [PRE8]	2.77 ± 0.21	2.77 ± 0.17	2.64 ± 0.15	2.75 ± 0.11
VNRLLSVIPLKGRYAPE [RRP4]	1.85 ± 0.17	1.68 ± 0.087	2.33 ± 0.15	1.86 ± 0.055
FLSQGLHVVITLLREVV [CSN12]	1.49 ± 0.06	1.73 ± 0.059	1.91 ± 0.093	2.13 ± 0.057
DGNNANYIYAGYENGML [RPN14]	2.73 ± 0.1	2.75 ± 0.094	2.79 ± 0.083	2.96 ± 0.069
LTLTDSQLAQVAAFVNN [BRR2]	2.14 ± 0.084	2.18 ± 0.099	2.37 ± 0.15	2.69 ± 0.061

Sequence	protein stability index (doa10∆)	protein stability index (pdr5∆)	protein stability index (san1∆)	protein stability index (ubr1∆)
LFNKPPSTNAQNVNVPS [YOR098C/NUP1]	3.15 ± 0.056	3.05 ± 0.051	3.03 ± 0.046	3.12 ± 0.04
TTEMLDKLMVTSIRSTP [MED6]	2.27 ± 0.14	2.45 ± 0.12	2.81 ± 0.27	2.53 ± 0.089
KLAKNLQIGDVVERHLE [RPO31]	3.25 ± 0.15	3.49 ± 0.12	3.31 ± 0.069	3.2 ± 0.12
RQKARTDAHTPLARNYI [RPR2]	2.63 ± 0.054	2.52 ± 0.058	2.78 ± 0.049	2.86 ± 0.042
RERDITSLFHKFILSGF [RRI2]	1.71 ± 0.048	2.07 ± 0.045	2.23 ± 0.063	2.09 ± 0.049
IKLSLKDKTKNISAEII [SMC4]	2.84 ± 0.082	3.09 ± 0.08	3.04 ± 0.066	3.11 ± 0.082
TTDSLTKVLQADLPGSY [YMR129W/POM152]	2.38 ± 0.082	2.79 ± 0.14	2.49 ± 0.1	2.43 ± 0.078
QSQLNVTLSQLVSVTST [MED8]	1.39 ± 0.025	1.79 ± 0.026	1.44 ± 0.049	1.3 ± 0.019
VFDKDGNYIKTENATEN [LIN1]	–	–	–	3.72 ± 0.28
KISGGNDKQGFPMKQGV [RPS6A]	2.53 ± 0.071	2.83 ± 0.085	3.01 ± 0.059	2.85 ± 0.067
TRLPAFERPAVKEEKED [RPC53]	2.87 ± 0.25	2.71 ± 0.23	3.21 ± 0.085	3.46 ± 0.16
AEEAIVNAMRVLYYRDA [PRE4]	–	3.33 ± 0.17	2.73 ± 0.2	–
NNAKLLTFMTCNSLHIP [ESC2]	1.71 ± 0.046	1.72 ± 0.052	1.6 ± 0.079	2.06 ± 0.047
EKKPAAKKTSTSVDGKK [HTB2]	2.38 ± 0.2	2.94 ± 0.15	2.72 ± 0.19	2.55 ± 0.2
NRANVSKDELREKLAEV [RPS24A]	3.53 ± 0.089	3.24 ± 0.11	3.37 ± 0.072	3.28 ± 0.088
FMRQNLEWNMANLLFKK [RPC82]	2.82 ± 0.11	1.94 ± 0.055	2.49 ± 0.082	2.85 ± 0.063
VLMERKDERGEGEAKQK [ITC1]	2.94 ± 0.21	3.35 ± 0.24	–	3.07 ± 0.22
SSLKESSPDTMKLTDLL [SNF12]	3.09 ± 0.088	3.08 ± 0.083	2.71 ± 0.098	3.1 ± 0.076
SPTINRANVYVGFLVQL [PRP8]	2.6 ± 0.065	1.89 ± 0.066	1.98 ± 0.1	2.1 ± 0.063
VLIDLLNWFRTTNMNVN [RGR1]	2.9 ± 0.11	1.66 ± 0.068	3.19 ± 0.096	1.92 ± 0.093
SETDKRQFLHELRRPGV [RPO31]	1.89 ± 0.056	1.73 ± 0.059	1.57 ± 0.16	1.57 ± 0.069
PRMASVFENYVKKTGEN [CDC53]	3.46 ± 0.11	3.4 ± 0.087	3.54 ± 0.065	3.47 ± 0.049
EKPFNENRFQDTLLLLP [POP4]	1.52 ± 0.11	2.58 ± 0.076	1.52 ± 0.14	2.72 ± 0.1
SEHFDVNDNPDIEAGDD [DIS3]	2.81 ± 0.058	2.93 ± 0.058	2.72 ± 0.076	3.08 ± 0.045
PLDSKDENFASVSPAGP [SNF2]	3.05 ± 0.11	3.12 ± 0.092	3.15 ± 0.071	2.99 ± 0.06
NVKELWTEKKGKNVINR [SMD2]	3.46 ± 0.22	–	3.54 ± 0.18	3.6 ± 0.11
IPTTKNLRLLVEENRVR [DLS1]	–	3.08 ± 0.1	2.87 ± 0.097	2.12 ± 0.061
